Source: doi:10.1101/2024.02.23.581731 (bioRxiv, 2024)
Values joined by “and” are separate entries in the source; they are usually repeats but may differ in a detail not shown here. Identical values can stand only once. Like-named read-outs stand apart in the source and are kept apart here.

B1: human wild-type 5-HT3A receptor (receptor, UniProt P46098 24-478, looked up)
chain: RRSRNTTRPALLRLSDYLLTNYRKGVRPVRDWRKPTTVSIDVIVYAILNVDEKNQVLTTYIWYRQYWTDEFLQWNPEDFDNITKLSIPTDSIWVPDILINEFVDVGKSPNIPYVYIRHQGEVQNYKPLQVVTACSLDIYNFPFDVQNCSLTFTSWLHTIQDINISLWRLPEKVKSDRSVFMNQGEWELLGVLPYFREFSMESSNYYAEMKFYVVIRRRPLFYVVSLLLPSIFLMVMDIVGFYLPPNSGERVSFKITLLLGYSVFLIIVSDTLPATAIGTPLIGVYFVVCMALLVISLAETIFIVRLVHKQDLQQPVPAWLRHLVLERIAWLLCLREQSTSQRPPATSQATKTDDCSAMGNHCSHMGGPQDFEKSPRDRCSPPPPPREASLAVCGLLQELSSIRQFLEKRDEIREVARDWLRVGSVLDKLLFHIYLLAVLAYSITLVMLWSIWQYA
B2: mouse wild-type 5-HT3A receptor (receptor, UniProt P23979 24-489, looked up)
chain: SRRRATQARDTTQPALLRLSDHLLANYKKGVRPVRDWRKPTTVSIDVIMYAILNVDEKNQVLTTYIWYRQYWTDEFLQWTPEDFDNVTKLSIPTDSIWVPDILINEFVDVGKSPNIPYVYVHHRGEVQNYKPLQLVTACSLDIYNFPFDVQNCSLTFTSWLHTIQDINITLWRSPEEVRSDKSIFINQGEWELLEVFPQFKEFSIDISNSYAEMKFYVIIRRRPLFYAVSLLLPSIFLMVVDIVGFCLPPDSGERVSFKITLLLGYSVFLIIVSDTLPATAIGTPLIGVYFVVCMALLVISLAETIFIVRLVHKQDLQRPVPDWLRHLVLDRIAWILCLGEQPMAHRPPATFQANKTDDCSGSDLLPAMGNHCSHVGGPQDLEKTPRGRGSPLPPPREASLAVRGLLQELSSIRHFLEKRDEMREVARDWLRVGYVLDRLLFRIYLLAVLAYSITLVTLWSIWHYS

Legend:
cryo-EM structure [1] = biological target: the molecule itself; assay: cryo-EM structure
cryo-EM structure [2] = biological target: the molecule itself; assay: cryo-EM structure; remark: listed apart in the source

Protein | stoichiometry N (cryo-EM structure [1]) | stoichiometry N (cryo-EM structure [2])
B1 | 5 and 4 | –
B2 | – | 5
